Measurements taken from PMC7954794, “Protein context shapes the specificity of SH3 domain-mediated interactions in vivo” (Nature Communications, 2021).

Test system: PPIs identified as affected by the SH3 domain deletions
Assay: Liquid DHFR-PCA low-throughput validation of PPIs affected by SH3 deletion (Fig. S1D-E)
Assay type: cell-based, Saccharomyces cerevisiae
Conditions: label = prey, liquid DHFR-PCA, prey _1 = lost, _2 = gained in screen
Outline: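 Yeast diploids from DHFR-PCA mating grown 48 h in synthetic complete MSG medium pH 6.0 with NAT and HPH, normalized to 1 OD and diluted to 0.1 OD in liquid PCA selection medium. Growth followed by OD every 15 min for 72 h at 30 °C.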

B1: YLR436C_1 (protein, UniProt Q06673 1-1274, looked up)
Protein ECM30: MGNTDSKSSSILLNHCIALVRPEDADASSPSRTSSPSPSLSVDADPLSLNLSIFKLDSGPDVEALFSDKPNVPLDTVFNDFYLDFISVDVQDFSINSSFKKILHIISSLNPPNFNNLIVFLSLYIILSANSLPASRTGLHSSRLINAIKTLSILIPIYFDRVKSSTQDHYDVFWATQHEIEGLPLQNIPLGERLLLAILKLAFQDNFTTAVTAHPSELWEIGILTNSNKYRSLLNMHHQWHLFANRLLLLRLLAALFSSDLYTSGGKQDINMFLVYWCTQMPKDKSIQFTSSLLNCTMRFILNNNKDFQSLKANFFSSDATASNWQTLYFQFVQSCLHVLNLSMSYKAQDNVITIFLTQLQREYDLKLILSSFIKIFKYPIDLAIEQESNIFNFTNNKHIDASRRRAVSTSSHDNSSSSHASLPSSSSAAYHTKPQTKPQLPEIHPLLIPMTILMTNLIDCNKCFQNYFADKFASRFIIFSIYYLKYYDYSSLSSSSSTTRSNSSTTSNGTSNDTSNERSIVELNENSVSQILLPLLNHLLLILTSKKLVLFKMLQTFNLNYYTNNLPNFYKLSNINGDINNLTFRDFTVIQLSNLILDNIKFNLQPNPIFYELIYNLLPINDEILTSSHKNDDSHDDLILLSAKKKSASPSAATSSHTSSSKLSYNAAMSLLYVLSKSSNKVYLTTYATPVFKTKDIPYMISPGFKMDLLALLLRSITIFFTLYFDDAENLLFAMVRHQSITHQINDSINSISKALDMNPNLNSHIMTLKQMGFNRKVQWKDFYQFEEITDLPQVNLYSSANQQHQNQQQGQNDNRGQNQNEDPGQENESPTPYLLFNPASLENETPGTVKHFSSTNHDKNYQVIAFIDFKSDSNLNLQHQLEYWPHRPQWPTPLTFTHKCKNPKYENFNEVWSGTVYLQILLRVIKQILSKVPEIPRIKSVQYFETLSKLSALRSDILTTIHPRLPLDVRRLTTFQPLSMHTNDKLLMWFHIATWANIFTQTSFKYEETFSHELRQFESLLDISIDECEGNTISKPTTDRLGYIRRSRGQSSVSLERTISAGSGVSTPTMALNRTKSNGSGNLMNYFFQNTAQNHFQHLRSSSSSSSITLEKTTSNSSSIRTRPNSHHVAPETNNNNSTNGNSNNSSNGGFSFFKWKWGGNNSNGGSDDTKASQRDPNVSTSIITDNLNSYMFEEEISPGVVNNIIENNIWVGTDIRLFKIANFRKESFSFLEMTSSFFKKFKFINSDNDNYNNNEFDDNTQLRYTSRGLYR
Ratio (Deletedscore / WTscore) (bait LSB3): 0.9725

B2: YJL201W_1 (protein, UniProt P32525 1-599, looked up)
Protein ECM25: MIDINVNNIFFRSYSVDPNSGHAIYVFDSTYLPASDEIGDKQVYDLLINALMDRLVMKLPQAPYSLVIFSSGFSQRKISWVYGIKMFAKLPKETKFYLQKIFIVHESFFVRSVYQVISNAMNFNFLDSKDSQHDFPSLVHVLDLTSLSELIDITRLRISLNVYLYDYQIREHINVPEEYYNRLTPLAIRQYRQLVFDKIFKKLQNDALLCELIFQKPGNYKKVNIFLDIIKRNNYIDLSQWDIYSLASVWLNYFIKNKAKPLIPIELIPLPIVDDLKFTSETFRKIIKFNQYQDLFMVIIPFFNRIIAHGESTKHDSRTLSKALTPALCKEKLSMMTNDRLAIGSRYIKNLLDFFPEIAKEISSPPSSVSSSSTIPVLPKPRKSSPTRYSELGCLTLPRSRSPSPQRSVTSPTYTPVALQNTPVLKPKSSSRNVSSPSFNAKPPLPIKAVTRPQLSLTSNSNTDLALASSSTDTLSSPTKTPSADSLPLSNSSTDLTISDNIKEMVKDEPAKDKNSVETDIFVQQFESLTLVQNAKIKKFDKELQEKKKKNETTSKTADKFSQKGYSDIKASNKVSRLAALYEERLQGLQVMNEMKQRW
Ratio (Deletedscore / WTscore) (bait LSB3): 0.8948

B3: YLR166C_1 (protein, UniProt Q06245 1-871, looked up)
Exocyst complex component …: MNSLYELDPKWKKLLKTDNFLGGLTVNEFVQELSKDHRNDVLIDANTKNLPTNEKDQDAIREAIWKQLDPKPYIRTFESTLKELKNLNEETLNKRQYFSEQVATQEVIHSENVIKLSKDLHTTLLTFDKLDDRLTNVTQVVSPLGDKLETAIKKKQNYIQSVELIRRYNDFYSMGKSDIVEQLRLSKNWKLNLKSVKLMKNLLILSSKLETSSIPKTINTKLVIEKYSEMMENELLENFNSAYRENNFTKLNEIAIILNNFNGGVNVIQSFINQHDYFIDTKQIDLENEFENVFIKNVKFKEQLIDFENHSVIIETSMQNLINDVETVIKNESKIVKRVFEEKATHVIQLFIQRVFAQKIEPRFEVLLRNSLSISNLAYVRILHGLFTLFGKFTKSLIDYFQLLEIDDSNQILSTTLEQCFADLFSHYLYDRSKYFGIEKRSLEAILVDMTSKFTVNYDKEINKRVLLDKYKEKLSTNVDAFMHSPRGNTHSRQDSTSRSKLSQFNSFLKTHLDKDHLSLNRTNTLSDSFNNSSSSTQYDVANNSSSLVNSSFTASDIDNSPNSPANYSLNDVDSMLKCVVESTARVMELIPNKAHLYILEILKIMFLGIVDSYMEIALEVAYWKICKVDINKTAGVVNLNFLKFISMSTEILDLLSISIKSIFLPLLNNSPEIKAQIIEMTNSQIQKMEILINIILQETITVISTKFSAILCKQKKKDFVPKSQELLDQDTLPAIEIVNILNLIFEQSSKFLKGKNLQTFLTLIGEELYGLLLSHYSHFQVNSIGGVVVTKDIIGYQTAIEDWGVASLIDKFATLRELANLFTVQPELLESLTKEGHLADIGRDIIQSYISNREDFNHDNFINSVKLNFR
Ratio (Deletedscore / WTscore) (bait LSB3): 0.4618

B4: YML016C_2 (protein, UniProt P26570 2-692, looked up)
Serine/threonine-protein …: GNSSSKSSKKDSHSNSSSRNPRPQVSRTETSHSVKSAKSNKSSRSRRSLPSSSTTNTNSNVPDPSTPSKPNLEVNHQRHSSHTNRYHFPSSSHSHSNSQNELLTTPSSSSTKRPSTSRRSSYNTKAAADLPPSMIQMEPKSPILKTNNSSTHVSKHKSSYSSTYYENALTDDDNDDKDNDISHTKRFSRSSNSRPSSIRSGSVSRRKSDVTHEEPNNGSYSSNNQENYLVQALTRSNSHASSLHSRKSSFGSDGNTAYSTPLNSPGLSKLTDHSGEYFTSNSTSSLNHHSSRDIYPSKHISNDDDIENSSQLSNIHASMENVNDKNNNITDSKKDPNEEFNDIMQSSGNKNAPKKFKKPIDIDETIQKLLDAGYAAKRTKNVCLKNNEILQICIKAREIFLSQPSLLELSPPVKIVGDVHGQYGDLLRLFTKCGFPPSSNYLFLGDYVDRGKQSLETILLLFCYKIKYPENFFLLRGNHECANVTRVYGFYDECKRRCNIKIWKTFIDTFNTLPLAAIVAGKIFCVHGGLSPVLNSMDEIRHVVRPTDVPDFGLINDLLWSDPTDSPNEWEDNERGVSYCYNKVAINKFLNKFGFDLVCRAHMVVEDGYEFFNDRSLVTVFSAPNYCGEFDNWGAVMSVSEGLLCSFELLDPLDSAALKQVMKKGRQERKLANQQQQMMETSITNDNESQQ
Ratio (Deletedscore / WTscore) (bait ABP1): 1.259
Ratio (Deletedscore / WTscore) (bait BOI1): 1.203
Ratio (Deletedscore / WTscore) (bait BZZ1-2): 1.516

B5: YIL095W_1 (protein, UniProt P40494 1-810, looked up)
Actin-regulating kinase PRK1: MNTPQISLYEPGTILTVGSHHAKIIKYLTSGGFAQVYTAEISPPDPYSNANIACLKRVIVPHKQGLNTLRAEVDAMKLLRNNKHVVSYIDSHAARSVNGIAYEVFVLMEFCERGGLIDFMNTRLQNRLQESEILEIMSQTVQGITAMHALQPPLIHRDIKIENVLISHDGLYKVCDFGSVSGVIRPPRNTQEFNYVQHDILTNTTAQYRSPEMIDLYRGLPIDEKSDIWALGVFLYKICYYTTPFEKSGEAGILHARYQYPSFPQYSDRLKNLIRLMLMEAPSQRPNICQVLEEVSRLQNKPCPIRNFYLLRAMNQNANTQLAGEPSSTTYVPTQKFIPVQSLQSINQPPNMMPVTHVSTTPNLGTFPISINDNNKTEVTAHAGLQVGSHSNLTSPLMKTKSVPLSDEFASLYYKELHPFQKSQTFKSVESFQSPQRKSMPPLSLTPVNNDIFDRVSAINRPNNYVDSETQTIDNMAVPNLKLSPTITSKSLSSTKEIAAPDNINGSKIVRSLSSKLKKVITGESRGNSPIKSRQNTGDSIRSAFGKLRHGFTGNSVNNSRSASFDNNNVNGNGNNTNRRLVSSSTSSFPKFNSDTKRKEESDKNQRLEKRRSMPPSILSDFDQHERNNSRTGSRDYYRSHSPVKKTQASAKTTSKPTLIPDNGNVNINQEKKESIQRRVHNLLKSSDDPVTYKSASGYGKYTDIGTETSNRHSSVRITPITEEKFKKTLKDGVLDIKTKSNGKDKSRPPRPPPKPLHLRTEIQKIRNFSRLQSKKLPIERISSEATETIVDVNVDDLEADFRKRFPSKV
Ratio (Deletedscore / WTscore) (bait LSB3): 0.5323
